Assay results published in patent publication US20090291088A1 (Biogen, published 2009).

Key:
[1] = molecular target: T1, human IGF-1R expressed on cells (human, UniProt P08069 31-1367); experiment: binding to tumor cells
T1 construct: On MCF-7 tumor cells or on 3T3/CHO transfectants; precursor is processed into alpha and beta subunits; Signal peptide 1-30 left out as stated; also called wild type IGF-1R; IGF-1R 3T3

[2] = molecular target: T2, human insulin receptor expressed in mammalian cells (UniProt P06213 28-1382, limits assumed); experiment: immunoprecipitation from IR CHO lysate, western blot with mouse anti-human IR
T2 construct: whole, on cells; Cells were solubilised with Triton X-100 before immunoprecipitation; also called INSR; IR
Procedure: Recombinant IGF-1R and insulin receptor (IR) were independently expressed in mammalian cells (3T3 or CHO). […] Antibody/antigen complexes were released from the beads by acid treatment, applied to Tris-Glycine SDS-PAGE gels and blotted to nitrocellulose membranes. Detection was performed using mouse anti-human IR (FIG. 24A) or mouse anti-human IGF-1R (FIG. 24B) and goat α-mouse IgG.

[3] = molecular target: T3, IGF-1R (soluble, construct not stated) (human, UniProt P08069 31-932, limits assumed); experiment: ligand blocking, competitor IGF-1; IGF-1 as the blocked ligand
T3 construct: whole entry named; also called Solube IGF-1R Protein; soluble recombinant human IGF-1R

[4] = molecular target: T3, IGF-1R (soluble, construct not stated …); experiment: binding to soluble IGF-1R protein
human INSR(28-956)-His10 = molecular target: T4, human INSR(28-956)-His10 (human, UniProt P06213 28-956); experiment: SPR, INSR over immobilised antibody
T4 construct: range 28-956; Bought (R&D Systems 1544-IR); also called rh-INSR; soluble insulin receptor

[5] = molecular target: T5, human IGF-1R(1-902)-His10 (human, UniProt P08069 31-932); experiment: SPR, antibody over captured IGF-1R-10His
T5 construct: Cy5-labelled in tr-FRET; also called hIGF-1R-His10; IGF-1R-His
Procedure: (§1) All surface plasmon resonance (SPR) experiments were performed on a Biacore 3000 set to 25° C. using HBS-EP (Biacore, Cat. No. BR-1001-88) as the running buffer. A biotin-labeled anti-HisTag antibody (biotin-PENTA-His, Qiagen Cat. No. 34440) was immobilized to saturation on a Biacore SA chip (Cat. No. BR-1000-32) surface by injection at 500 nM in HBS-EP buffer. […] Subsequent to IGF-1R injections, flow rates were increased to 20 μL/min. A second, 130 μL injection of anti-IGF-1R antibody or Fab was performed to investigate interactions with the receptor. Each antibody and Fab was serially diluted from 64 nM to 0.5 nM to obtain concentration dependent kinetic binding curves. Each injection series was regenerated using 3×10 μL injections of 10 mM Acetate, pH 4.0, at 20 μL/min. Each curve was double referenced using (1) data obtained from a streptavidin surface devoid of IGF-1R and (2) data from a primary injection of IGF-1R followed by a secondary injection of HBS-EP buffer. The concentration series for each antibody and Fab was fit to the 1:1 binding model provided within the BiaEvaluation software of the manufacturer.
(§2) The rates at which the antibodies accumulate on the IGF-1R coated surface when applied at various concentrations as well as the rates at which they dissociated during applications of pure buffer were investigated by fitting the data to a 1:1 binding model. Approximate kinetic rate constants and equilibrium dissociation constant were calculated (Table 14).

[6] = molecular target: cynomolgus IGF-1R expressed on cells (cynomolgus macaque, UniProt G7P9I7 31-1343); experiment: binding to CHO transfectants
[7] = molecular target: T6, Rhesus IGF-1R expressed on CHO cells (rhesus monkey, UniProt I2CWY3 31-1367); experiment: binding to CHO transfectants
T6 construct: whole, on cells; also called Rhesus IGF-1R/CHO
T6 sequence (I2CWY3 entry or part of it): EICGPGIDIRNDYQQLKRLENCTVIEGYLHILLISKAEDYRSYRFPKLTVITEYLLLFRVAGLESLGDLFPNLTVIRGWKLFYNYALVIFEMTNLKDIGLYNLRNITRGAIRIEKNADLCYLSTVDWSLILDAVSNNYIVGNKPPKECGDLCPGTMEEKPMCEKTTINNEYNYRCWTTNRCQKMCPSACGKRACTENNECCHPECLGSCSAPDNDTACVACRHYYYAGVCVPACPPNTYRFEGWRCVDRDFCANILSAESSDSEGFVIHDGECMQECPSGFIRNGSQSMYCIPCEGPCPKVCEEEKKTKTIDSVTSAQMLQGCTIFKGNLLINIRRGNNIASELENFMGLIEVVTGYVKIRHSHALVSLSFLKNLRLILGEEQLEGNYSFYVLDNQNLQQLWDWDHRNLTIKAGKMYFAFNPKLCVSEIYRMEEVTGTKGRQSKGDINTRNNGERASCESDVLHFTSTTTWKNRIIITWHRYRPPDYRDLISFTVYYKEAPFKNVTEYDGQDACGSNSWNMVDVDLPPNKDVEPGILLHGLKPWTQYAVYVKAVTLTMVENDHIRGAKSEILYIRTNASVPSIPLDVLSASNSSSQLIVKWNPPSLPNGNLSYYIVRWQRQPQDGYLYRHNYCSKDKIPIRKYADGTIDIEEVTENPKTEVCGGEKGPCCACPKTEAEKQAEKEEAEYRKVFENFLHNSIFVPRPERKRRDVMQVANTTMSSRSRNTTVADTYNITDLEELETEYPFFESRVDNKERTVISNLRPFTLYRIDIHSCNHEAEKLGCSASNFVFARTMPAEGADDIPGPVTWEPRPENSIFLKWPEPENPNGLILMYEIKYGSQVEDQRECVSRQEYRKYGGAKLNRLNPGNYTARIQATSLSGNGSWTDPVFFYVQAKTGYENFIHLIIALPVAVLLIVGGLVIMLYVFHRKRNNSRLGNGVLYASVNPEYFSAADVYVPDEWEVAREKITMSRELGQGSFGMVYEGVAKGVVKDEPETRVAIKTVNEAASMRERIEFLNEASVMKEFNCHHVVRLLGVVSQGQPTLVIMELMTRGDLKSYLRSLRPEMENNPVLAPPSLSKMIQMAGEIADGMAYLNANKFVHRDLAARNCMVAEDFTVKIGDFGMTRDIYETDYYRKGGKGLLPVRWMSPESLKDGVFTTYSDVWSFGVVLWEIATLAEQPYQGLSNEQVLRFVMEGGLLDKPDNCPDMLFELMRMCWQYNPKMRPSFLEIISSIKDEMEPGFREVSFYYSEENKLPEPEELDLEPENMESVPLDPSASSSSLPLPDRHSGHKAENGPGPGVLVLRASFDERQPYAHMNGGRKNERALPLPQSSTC

[8] = molecular target: T5, human IGF-1R(1-902)-His10; experiment: SPR, antibody over IGF-1R-10His captured by anti-His, 1:1 model, approximate
Procedure: as §1, with “The concentration series for each antibody and Fab was fit to the 1:1 binding model provided within the BiaEvaluation software of the manufacturer.” left out
as §2

[9] = molecular target: T1, human IGF-1R expressed on cells; experiment: cell-based or functional assay
[10] = molecular target: T7, rat IGF-1R expressed on immune cells (rat, UniProt P24062 31-1370); experiment: FACS on granulocytes, monocytes, lymphocytes
T7 construct: whole, on cells
T7 sequence (P24062 31-1370): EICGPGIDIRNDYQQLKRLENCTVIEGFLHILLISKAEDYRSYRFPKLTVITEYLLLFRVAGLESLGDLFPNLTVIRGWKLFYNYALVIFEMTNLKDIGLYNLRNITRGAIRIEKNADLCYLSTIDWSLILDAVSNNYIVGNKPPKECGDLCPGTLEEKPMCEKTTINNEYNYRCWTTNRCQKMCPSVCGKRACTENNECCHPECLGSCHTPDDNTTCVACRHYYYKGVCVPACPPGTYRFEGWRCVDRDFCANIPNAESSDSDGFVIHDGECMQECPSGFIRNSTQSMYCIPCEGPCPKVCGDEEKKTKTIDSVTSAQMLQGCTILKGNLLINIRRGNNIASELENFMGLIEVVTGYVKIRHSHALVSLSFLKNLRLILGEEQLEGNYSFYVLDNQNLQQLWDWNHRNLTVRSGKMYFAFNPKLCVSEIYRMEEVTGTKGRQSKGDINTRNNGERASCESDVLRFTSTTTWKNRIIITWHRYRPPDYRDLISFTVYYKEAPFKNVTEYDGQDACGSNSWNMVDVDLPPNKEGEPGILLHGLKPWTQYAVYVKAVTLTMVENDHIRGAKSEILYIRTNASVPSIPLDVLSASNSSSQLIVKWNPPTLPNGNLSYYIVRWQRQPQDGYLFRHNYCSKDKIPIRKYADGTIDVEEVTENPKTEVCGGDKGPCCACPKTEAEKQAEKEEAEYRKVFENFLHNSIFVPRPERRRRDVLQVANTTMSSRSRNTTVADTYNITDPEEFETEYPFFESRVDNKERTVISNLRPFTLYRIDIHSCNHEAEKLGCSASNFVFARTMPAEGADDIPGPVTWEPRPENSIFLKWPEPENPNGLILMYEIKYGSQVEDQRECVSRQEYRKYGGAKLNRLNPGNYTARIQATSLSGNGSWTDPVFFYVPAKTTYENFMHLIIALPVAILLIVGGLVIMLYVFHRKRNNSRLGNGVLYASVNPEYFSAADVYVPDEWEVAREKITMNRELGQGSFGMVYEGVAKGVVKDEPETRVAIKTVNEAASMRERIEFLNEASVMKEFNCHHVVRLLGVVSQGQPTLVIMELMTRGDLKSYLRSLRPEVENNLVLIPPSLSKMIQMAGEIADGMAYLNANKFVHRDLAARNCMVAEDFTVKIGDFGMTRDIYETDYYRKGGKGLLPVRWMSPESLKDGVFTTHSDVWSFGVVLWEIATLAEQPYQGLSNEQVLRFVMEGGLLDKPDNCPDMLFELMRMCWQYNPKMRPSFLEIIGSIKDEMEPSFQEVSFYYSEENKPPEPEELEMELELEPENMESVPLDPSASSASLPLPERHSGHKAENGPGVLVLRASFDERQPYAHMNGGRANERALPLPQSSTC

[11] = molecular target: T3, IGF-1R (soluble, construct not stated …); experiment: ligand blocking, competitor IGF-2; IGF-2 as the blocked ligand
human IGF-1R(1-903)-Fc [12] = molecular target: T8, human IGF-1R(1-903)-Fc (human, UniProt P08069 31-933); experiment: ELISA, plate coated with soluble IGF-1 receptor Fc fusion protein, detection with anti-human kappa-HRP
T8 construct: Made by Biogen Idec; Multimerises through IGF-1R and Fc; also called hIGF-1R-Fc; IGF-1R-Fc; not shown: C-terminal human IgG1-Fc tag
Procedure: The plate was washed with phosphate-buffered saline (PBS, Irvine Scientific, Cat#9240), pH 7.4 plus 0.025% Tween 20 in the Skan Washer 300 (Skatron Instruments), blocked with buffer containing 1% nonfat milk, 0.05% Tween 20 in PBS, pH 7.4, and then incubated at room temperature for 1 hour. After incubation plate was washed with PBS plus 0.025% Tween 20 in the Skan Washer 300. […] Following a one hour incubation at room temperature, plate was washed with PBS plus 0.025% Tween 20 in the Skan Washer 300. […] Plate incubated for 1 hour at room temperature was washed with PBS plus 0.025% Tween 20 in the Skan Washer 300. […] The absorbance was measured at 450 nm, background 540 nm for TMB using the Molecular Devices plate reader. Data was analyzed using the SOFTMAX PRO software package version 4.3 LS (Molecular Devices Corp.).

human IGF-1R(1-903)-Fc [13] = molecular target: T8, human IGF-1R(1-903)-Fc; experiment: competition ELISA: biotinylated hIGF-1R-Fc on streptavidin plate, 320 nM human IGF-2 His, detection with anti-His-HRP; blocked ligand human IGF-2 His
human IGF-1R(1-903)-Fc [14] = molecular target: T8, human IGF-1R(1-903)-Fc; experiment: ELISA on hIGF-1R-Fc, competitor biotinylated M13-C06
human IGF-1R(1-903)-Fc [15] = molecular target: T8, human IGF-1R(1-903)-Fc; experiment: competition ELISA: biotinylated hIGF-1R-Fc on streptavidin plate, 320 nM human IGF-1 His, detection with anti-His-HRP; blocked ligand human IGF-1 His
Procedure: hIGF-1R-Fc was biotinylated using EZ-Link Sulfo-NHS-LC-Biotin according to the protocol provided by the manufacturer (Pierce Cat. No. 21335). Biotinylated human IGF-1R-Fc at 5 μg/ml was added to the wells of SigmaScreen streptavidin-coated 96-well plates (Sigma, Cat. No. M5432-5EA; Sigma-Aldrich Corp. (St. Louis, Mo., USA)) at 100 μL/well and incubated overnight at 2-8° C. The plates were then washed four times with 200 μL/well PBST. […] The dilutions were added to the plates in duplicate at 100 μL/well and the plates were incubated at RT for 1 hour. The plates were then washed four times with 200 μL/well PBST. An HRP-conjugated anti-Histag antibody (Penta-His HRP Conjugate, QIAGEN, Cat. No. 1014992) was diluted 1:1000 in PBST and added to plates at 100 μL/well, and the plates were incubated at RT for one hour. The plates were then washed four times with 200 μL/well PBST. SureBlue Reserve TMB Microwell Peroxidase Substrate (KPL, Cat. No. 53-00-01) was added to plates at 100 μL/well followed by 1% phosphoric acid at 100 μL/well once the desired reaction was observed. The absorbance of each well was determined at 450 nm, and the results were normalized and plotted against the log of antibody concentration.

B1: M13-C06.G4.P.agly (antibody, human IgG4 S228P, kappa, V domains shown)
VH: EVQLLESGGGLVQPGGSLRLSCAASGFTFSIYRMQWVRQAPGKGLEWVSGISPSGGTTWYADSVKGRFTISRDNSKNTLYLQMNSLRAEDTAVYYCARWSGGSGYAFDIWGQGTMVTVSS
VL: DIQMTQSPLSLSASVGDRVTITCQASRDIRNYLNWYQQKPGKAPKLLIYDASSLQTGVPSRFGGSGSGTDFSFTIGSLQPEDIATYYCQQFDSLPHTFGQGTKLEIKR
notes: Full-length human aglycosylated IgG4.P (S228P/T299A, EU), kappa; Places that say only 'M13-C06 antibody' were assigned to this version; Labelled with Eu chelate or biotin in some assays; also called M13-C06_Ab; Eu-C06
Q: With B1 as the binder, how does the EC50 [1] read?
A: 0.22 nM

Q: Does B1 bind [2]?
A: no binding

Q: What about the IC50 [3] of the same binder?
A: 0.979 nM

Q: And the EC50 [4]?
A: 0.0422 nM

Q: Does B1 bind (human INSR(28-956)-His10)?
A: no binding (tested: 2 µM)

Q: What about the koff [5] of the same binder?
A: 0.00025 s⁻¹

Q: And the kon [5]?
A: 1.8e+06 M⁻¹ s⁻¹

Q: What about the EC50 [6] of the same binder?
A: 0.47 nM

Q: And the EC50 [7]?
A: 0.27 nM

Q: And the Kd [8]?
A: 0.13 nM

Q: And the “inhibition of IGF-1 and IGF-2 mediated IGF-1R receptor phosphorylation (EC50)” value [9]?
A: < 1 nM

Q: Does B1 bind [10]?
A: no binding

Q: What about the IC50 [11] of the same binder?
A: 0.525 nM

Q: What about the “EC50 (read off the curve)” value (human IGF-1R(1-903)-Fc [12]) of the same binder?
A: ~0.04 nM

Q: And the “IC50 (read off the curve)” value (human IGF-1R(1-903)-Fc [13])?
A: ~1 nM

Q: And the “percent competition (relative to self-competition)” value (human IGF-1R(1-903)-Fc [14])?
A: 90 to 100%

Q: And the “IC50 (read off the curve)” value (human IGF-1R(1-903)-Fc [15])?
A: ~1 nM
